Results published in the DeepSol protein solubility set.

Assay: soluble on expression in E. coli; label from the status in PepcDB or PDB records

**Q.** With “MSLMASAVAEENAERSKEGFIEGSEVNLLLRNFYFNRDFRKGQSSPAGGGYTEEWVQGFMANFSSGFTQGTLGVGIDAFAQLGVRLDSGGGRSGAGGSVDLLPYDDQGRPQDDYSRAGGAVKLRWYGTVLRVGDVFPETPVIQYGNSRLFPSSFRGFTLVNDSLAKGLTLQAGKLNSMTQPNSTSGSDDFYSFYTGRRIDSPWVAYAGGDYQATEHWSVSLYGSRQKDAWDQYYAGTSFNYPLDDKLSLLGGANYYKVKDQGRQVMGELDNDIWSVRGGFAYGPHQVLLSYQRNNGDDDFDYLRQTDSIYLDNSIQYSDFNSPKERSLMLRYDLDMAAFGVPGLSFMTRYGKGWDADYSNANSVYMRTDANGNPLTNQGRWERDVEVKYVVQGGAAKDLAFRVRQATVRSDSFESDLDEVRLIVEYPLQVLEGHHHHHH” as the sequence, how does the “soluble on expression in E. coli” value read?
**A.** not soluble

**Q.** For “MILVTGGARSGKSRHAEALIGDAPQVLYIATSQILDDEMAARIQHHKDGRPAHWRTAECWRHLDTLITADLAPDDAILLECITTMVTNLLFALGGENDPEQWDYAAMERAIDDEIQILIAACQRCPAKVVLVTNEVGMGIVPENRLARHFRDIAGRVNQRLAAAADEVWLVVSGIGVKIK”, which “soluble on expression in E. coli” value is on record?
**A.** soluble

**Q.** With “MGSDKIHHHHHHMTGTTENDNTGEDEKPKDEECAAIEHKDKFNPTAYLNSFYKTASEDTAMQIVLFFLPGILYRLPQKVRSVLDLGAGPTVYLPISLRDRAENIYTSDYAPANRDTLINWIEDKSDFDWDNVCSWIANIEASMETGKQMQNKTRKLMRAVLDVNVHESPVVQSIVWKENEQVQVPDKFQVVSTVFCLEYSCETLEAYFRAVRSACSLIDEGGILIQGGVLDATTYNFGGKTFRCHRLKQAHIIESLKANGMATTAEQGYKFITHDDIFLLVSKKL” as the sequence, how does the “soluble on expression in E. coli” value read?
**A.** not soluble

**Q.** For “MADDSVLPSPSEITSLADSSVFDSKVAEMSKENLCLASTSNVDEEMPQVEARVIMVQDAGKQEELLKALKEMKVPCVKMDSMEEFESLDSPEFENIFVVTDFQNSVFNDLYKADCRIVGPPVILNCAQRGEPLPFSCRPLYCTSMLNLVLCFTGFRKKEELVKLVTLVHHMGGVIRKECNSKVTHLVANCTQGEKFRVAVSLGTPIMKPEWIYKAWERRNEQCFCAAVDDFRNEFKVPPFQDCILSFLGFSDEEKHSMEEMTEMQGGSYLPVGDERCTHLIVEENTVKDLPFEPSKKLFVVKQEWFWGSIQMDARAGETMYLYEKANTPELKKSVSLLSLSTPNSNRKRRRLKETLAQLSRETDLSPFPPRKRPSAEHSLSIGSLLDISNTPESSIHYGETPKSCAKSSRSSTPVPPKQSARWQVAKELYQTESNYVNILATIIQLFQVPLEEEGQRGGPILAPEEIKTIFGSIPDIFDVHMKIKDDLEDLIANWDESRSIGDIFLKYAKDLVKTYPPFVNFFEMSKEMIIKCEKQKPRFHAFLKINQAKPECGRQSLVELLIRPVQRLPSVALLLNDLKKHTADENPDKSTLEKAIGSLKEVMTHINEDKRKTEAQKQIFDVVYEVDGCPANLLSSHRSLVQRVETVSLGEHPCDRGEQVTLFLFNDCLEIARKRHKVIGTFRSPHDRTRPPASLKHIHLMPLSQIKKVLDIRETEDCHNAFALLVRPPTEQANVLLSFQMTSEELPKESWLKMLCRHVANTICKADAENLMYVADPESFEVNTKDMDSTLSRASRAIKKTSKKVTRAFSFSKTPKRALRMALSSSHSSEGRSPPSSGKLAVSRLSSTSSLAGIPSPSLVSLPSFFERRSHTLSRSTTHLI”, which “soluble on expression in E. coli” value is on record?
**A.** soluble

**Q.** For “SAAHQMDSITYSNNVTQQYIQPQSLQDISAVEDEIQNKIEAARQESKQLHAQINKAKHKIQDASLFQMANKVTSLTKNKINLKPNIVLKGHNNKISDFRWSRDSKRILSASQDGFMLIWDSASGLKQNAIPLDSQWVLSCAISPSSTLVASAGLNNNCTIYRVSKENRVAQNVASIFKGHTCYISDIEFTDNAHILTASGDMTCALWDIPKAKRVREYSDHLGDVLALAIPEEPNSENSSNTFASCGSDGYTYIWDSRSPSAVQSFYVNDSDINALRFFKDGMSIVAGSDNGAINMYDLRSDCSIATFSLFRGYEERTPTPTYMAANMEYNTAQSPQTLKSTSSSYLDNQGVVSLDFSASGRLMYSCYTDIGCVVWDVLKGEIVGKLEGHGGRVTGVRSSPDGLAVCTGSWDSTMKIWSPGYQ”, which “soluble on expression in E. coli” value is on record?
**A.** not soluble

**Q.** With “MQQLLISILEDLNNTSTDIIASAVISTDGLPMATMLPSHLNSDRVGAISATLLALGSRSVQELACGELEQVMIKGKSGYILLSQAGKDAVLVLVAKETGRLGLILLDAKRAARHIAEAI” as the sequence, how does the “soluble on expression in E. coli” value read?
**A.** not soluble

**Q.** With “MGHHHHHHSHMSEFMQRFADLRDRKAYAEIVDALPYVKLMGTSMAEDEQGELRFELPFLQRNVGNTTLPALHGGLIGGFMESAAMIHLMWNRESLEAPKIVDFSLDYLRPGRPQTLFAQCEITKQGKRVAHVLIEAWQDDRSKPVAVARAHFLLTN” as the sequence, how does the “soluble on expression in E. coli” value read?
**A.** soluble

**Q.** With “MHHHHHHSSGRENLYFQGTGQDALVLGFDWGKFLKDHSYKAAPVSCFKHVPLYDQWEDVMKGMKVEVLNSDAVLPSRVYWIASVIQTAGYRVLLRYEGFENDASHDFWCNLGTVDVHPIGWCAINSKILVPPRTIHAKFTDWKGYLMKRLVGSRTLPVDFHIKMVESMKYPFRQGMRLEVVDKSQVSRTRMAVVDTVIGGRLRLLYEDGDSDDDFWCHMWSPLIHPVGWSRRVGHGIKMSERRSDMAHHPTFRKIYCDAVPYLFKKVRAVYTEGGWFEEGMKLEAIDPLNLGNICVATVCKVLLDGYLMICVDGGPSTDGLDWFCYHASSHAIFPATFCQKNDIELTPPKGYEAQTFNWENYLEKTKSKAAPSRLFNMDCPNHGFKVGMKLEAVDLMEPRLICVATVKRVVHRLLSIHFDGWDSEYDQWVDCESPDIYPVGWCELTGYQLQPPVAAEPATPLKAKEATKKKKKQ” as the sequence, how does the “soluble on expression in E. coli” value read?
**A.** soluble

**Q.** With “MNTSTTKPFAWPAHVFKEYDIRGRAGEELDESFAYWLGRAFADMMQKEGEKRAVVGHDNRLSSPGLHRALKDGLLDGGCDVVDIGLSTTPMFYYSLYYTNIPCGMIITASHNPGDENGFKIAMGKTTIYGERIQALRRAMERLSQEQPRPETARGREETLDLAPAYIKMLKEKIQLGPRKLKVVVDCGNGTPSIIAPQVLKEWGCDVVPLYCESDPTFPNHHPDPVVPENLTALIEMVRKEQADLGIAFDGDGDRIGVVDETGAIRWGDQLMVLFWREILKRYPGADAPVEVKCSQALVEEIERLGGKPFFHRTGHSHVKATLRRRPEIPFAGEMSGHLFFNDEFYGYDDALYAAGRLLRLLSHDERPLSEWFADVPRYAATPETRVACPEEKKPAAIAAVKNQFAGRYPVVDVDGARIQFPEGWGLVRPSNTQPILVLRAEAKTEEALAEIKRQLADCLHALELCIDW” as the sequence, how does the “soluble on expression in E. coli” value read?
**A.** soluble

**Q.** With “GLTYDLNGNISTYRNEILELPETVAANGKFGGNGVKSVVGHTYGAQVGYIADGIFKSQDEVDNHATQEGAAVGRIRYRDIDHNGVIDERDQNWIYDPTPSFSYGLNIYLEYKNFDLTMFWQGVQGVDIISDVKKKSDFWSASNVGFLNKGTRLLNAWSPTNPNSDIPALTRSDTNNEQRVSTYFVENGSFLKLRNIQLGYTVPAVISKKMRMDRLRFYCSAQNLLTIKSKNFTGEDPENPNFSYPIPVNITFGLNIGF” as the sequence, how does the “soluble on expression in E. coli” value read?
**A.** not soluble

**Q.** Which “soluble on expression in E. coli” value does the source give for “MAHHHHHHMVGLRTRNVIDPIHGGVGRVIGGKGVSIDRNDGSIISDNEGENDRNGGDIPKAEGEEGRDAQDKGNAKVVMPIDEANQSNIANICSCDFTERLNFIPQEKTKVVCNLNPHHGEEVKIWVNKEYEVKCFQNSRVYCPSKDNIVNNTDITTYSPKLKYNISDVVHRDREVKEYHLQIDKDASDILLFCSIKPKQVSELLEGEVKINLKREISEEYSIPDEHGIHACNFSKGNLDISPSAGFYYKNDRSVSCIYLVIPNKLFLIKLPKLDIVTNQLLPSLVNCLSEHSFINFNLKHVEEGDESISLHLSFGDFKRTFNLSCAFDLSEYVIEPCLLGKKGIVTFYFNA” here?
**A.** not soluble

**Q.** With “MKGYIHVYTGNGKGKTTAALGLATRAACAGLKVFFGQFLKGRETSELKISEFLPNFEIVQYGTPEFIVGNPSEEQIKKAKSGLADAKERLVSEKYDVVVLDELCVAIHLGLFSKEEIEDLLNVKPENVELVITGRYAPEWLIEKADLVTEMKEVKHYYQKGVVARKGIEY” as the sequence, how does the “soluble on expression in E. coli” value read?
**A.** soluble

**Q.** For “MSIDKSPREHWASHQERGSFMLMKLTAWGMRVLGRRLLTPVQYGIVLYFFVFGRRARHSIWEYQQRLADWSARPELRPSQRRVFGQFMAFAEALLDKLDVWNGRLGIEQIEIIDPALLRQSLRGARGQMLVGAHLGNLEVCRALAELGEKITMNVLVHTKHAERFNRLLGEAGATNLRLIQVSELDPAIMLQLSQRLDEGEWLAIAGDRVALHGGRNVRVDFLGQPATFPQGPWLLAGLLKCPVNLFFCLKGPKGYRVILEPFADAIEWRRSDRAQVIAHWATRYAERLGHYCLEAPQQWFNFYPFWKSDDESSS”, which “soluble on expression in E. coli” value is on record?
**A.** not soluble

**Q.** For “MGEPVIEAQISAGFDSDSGFRHAFSRLAGQPPSNLRGRELLKVDWLQTPIGVMLAVADLEHHHHHH”, which “soluble on expression in E. coli” value is on record?
**A.** not soluble

**Q.** With “MFQVQKELASHEAVVVALFEEEKTSSFVQELDKAFEGQLQVLLEEKELSTKKKAISKVHSLGKTDVKRYYFVGLGKKESYTTETLRSALGKTFKTLQAAKVQDAAILLDSFVTEKLDAIDVAHIAAEVQGLGTYELQTYKSDKKDRVELEKFTAITAEDAQEIEAALTVGYVHGRATNSARTLVNMPPNVLTATKLAEYAVELAEKYDMDYKVLEKEEMEELGMGALLAVNQGSVEPPKMIALIYKGKEEWTDVIGFVGKGITYDTGGYSLKPREGMVGMKGDMGGAAAVLGAMEIIGELRPEQNVIAVIPSTDNVVSGTAFKPDDVITSMSGKTIEVLNTDAEGRLALADGITYAKKLGANYLIDVATLTGGVIVALGNHTTGAMTNNEELFEQVLEASMETDESIWQLPIFDRDKERVRNSKFADLNNSPGREGHAVMAGTFIGEFAEDTPWVHLDIAGTSESSGAHDLGPAGATGAMVRTLATLVERFGEE” as the sequence, how does the “soluble on expression in E. coli” value read?
**A.** not soluble

**Q.** Which “soluble on expression in E. coli” value does the source give for “MHPALWVSKTGLDAQQTNIATISNNLANASTVGYKKSRAVFEDLFYQNINQPGGQSSQNTELPSGLMLGAGSKVVATQKVHTHGNAQTTTNALDMMVEGDGFFQVTLPDGNIGYTRNGQFTLNGEGTLVTSGSGYPVEPEIVI” here?
**A.** not soluble

**Q.** With “MGSDKIHHHHHHMKVSGGEVPPFFKEGFFFTSEELTHLINVCSSTSAIISVLKDSKYRRSLVLYLKRPLSKDALLLIQTLLTTLEREDLSFGVKELEYMAYHDPLTGLPNRRYFFELGNRYLDLAKREGKKVFVLFVDLAGFKAINDTYGHLSGDEVLKTVSKRILDRVRRSDVVARYGGDEFTILLYDMKEEYLKSLLERILSTFREPVRVENKHLSVTPNIGVARFPEDGENLEELLKVADMRMYKAKEMKVPYFSLS” as the sequence, how does the “soluble on expression in E. coli” value read?
**A.** not soluble

**Q.** With “MGNQYVKPERTGNSPYTRSGVPPPALVKTGDKPLHRVNDRMSLELHMADERVRAAGLSPAEREWRKKWVHDQHLHADEPVVVDAVHRQLNPIRTAYRLPWDKFYLHYLKPTFGVYYGTAIRVTAPKLLMAFVVVQTAYYYWKYEVKDWTHLRGLESMPQKEVIASAPAIEEKFPGLMDKGLANPSKDDYYTPTFNKRTAYLDVGETKRPW” as the sequence, how does the “soluble on expression in E. coli” value read?
**A.** not soluble

**Q.** Which “soluble on expression in E. coli” value does the source give for “GSEAWMNFYLEEFNLSIPDSGPYGITSSEDGKVWFTQHKANKISSLDQSGRIKEFEVPTPDAKVMCLIVSSLGDIWFTENGANKIGKLSKKGGFTEYPLPQPDSGPYGITEGLNGDIWFTQLNGDRIGKLTADGTIYEYDLPNKGSYPAFITLGSDNALWFTENQNNSIGRITNTGKLEEYPLPTNAAAPVGITSGNDGALWFVEIMGNKIGRITTTGEISEYDIPTPNARPHAITAGKNSEIWFTEWGANQIGRITNDNTIQEYQLQTENAEPHGITFGKDGSVWFALKCKIGKLNLNE” here?
**A.** soluble

**Q.** For “MYVENSYLSKQLCFLFYVSSKEIIKKYTNYLKEYDLTYTGYIVLMAIENDEKLNIKKLGERVFLDSGTLTPLLKKLEKKDYVVRTREEKDERNLQISLTEQGKAIKSPLAEISVKVFNEFNISEREASDIINNLRNFVSKNFDYSDKK”, which “soluble on expression in E. coli” value is on record?
**A.** not soluble
